The assay concerns the target trypsin-digested STING c-di-GMP binding domain (CBD) (human) (UniProt Q86WV6). The assay is described as follows: SEC. On the technique in general: In gel filtration, larger molecules generally elute earlier.

Consider 1 substance from publication PMC3697849.

For “trypsin-digested STING c-di-GMP binding domain (CBD) (from UniProt Q86WV6 139-379) (domain or fragment)”, the stoichiometry N was 2.

In general, stoichiometry N refers to the number of molecules, sites or subunits per partner or assembly.
